Experimental data reported in the nanobody polyreactivity screen of Harvey et al. (2022).

test: yeast display, Sf9 membrane polyspecificity reagent, FACS + sequencing; frameworks hold sequencing errors
Summary of the method: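 Polyreactivity labels are assigned by the sorting gate from which each nanobody was recovered. The gates were low and high (top ~1%), set on anti-HA fluorescence for expression and streptavidin fluorescence for reagent binding. Before sorting, galactose-induced (36–48 hours) yeast display cells were stained for 1 hour at 4 °C with 10% biotinylated, detergent-solubilized Sf9 membrane reagent.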

Sequence	polyreactivity (PSR sort gate)
QVQLVESGGGLVQAGGSLRLSCAASGSSFEGYVLGWYRQAPGKERELVATISFSGGSTYYADSVMGRFTISRDNAKNTVYLQMNSLKPVETAVYFSGASVRYKFYSVVSVRSEYWGQGTQVTVST	low polyreactivity
QVQLVESGGGLVQAGGSLRLSCAASGSSFGGYARGWYRQAPGKERELVAAISNGDRTNYADSVKGRFTISRDNAKNTVYLQLNSQKPEYTAVYDCATQPLTWSSYRWDWRAQFDHWGQGTQVTVSS	low polyreactivity
QVQLVESGGGLVQAGGSLRLSCAASGSSFIINAMGWYRKAPGKERELVAAITSGGSTSYADSVKGRFTISRDNAKYTVYLQMNSLNPEDTAVYYCATDHDIGYNFNRYDYWGLGTQVTVSS	low polyreactivity
QVQLVESGGGLVQAGGSLRLSCAASGSSFISNAKGWYRQAPGKERELVAAINWTTGRTRYADSVQGRFTISRDNAKNSVYLQMNSLKAEDTAVYYCAKYSRKWYGAYYFWGQGTQVNVSS	high polyreactivity
QVQLVESGGGLVQAGGSLRLSCAASGSSFNRYAMGWYRQAPGKERELVAGISYRGGTYYADSVKGRFTISRDNAKNTVYLQMNSLKPEDTAVYYCNVVRRGTTSYDDYDYWGQGTQVTVSS	high polyreactivity
QVQLVESGGGLVQAGGSLRLSCAASGSSFRFYAMGWYRQAPGKERELVATIRYSTGTTYYADSVKGRFTISRDNAKNTVYLQMNSLKPEDTAVYYCAAGYFIYSWRIRFDYWGQGTQVTVSS	high polyreactivity
QVQLVESGGGLVQAGGSLRLSCAASGSSFRYTMGWYRQAHGKQRELVATITYSDGSTYYADSVKGRFTISRDNAKNTVYFQMNSLKPEDTAVYYCARTTPTGRQYRRYDYWGQGSQVTVSS	low polyreactivity
QVQLVESGGGLVQAGGSLRLSCAASGSSFSHYAMGWYRQAPGKVRELVAGISVRGGSTYYADSVKGRFTISRDNAKNTVDLQMNSLKPEDTAVYYCAIGYAKYYRTYYYWGQGTQVTVSS	high polyreactivity
QVQLVESGGGLVQAGGSLRLSCAASGSSFSPYAMGWYRQAPGKERELVAAINSGSSTNYADSVKGRFTISRDNAKNTVYLQMNSLQPEDTAVYYCAADGQLPPRGILASWEFDYWGQGTQVTVSS	low polyreactivity
QVQLVESGGGLVQAGGSLRLSCAASGSSFVYNVMGWYRPAPGKERELVAAIRWRGGSTYADSVKGRFTISRDNAKNTVYLQMNSLKPEDTAVYYCAAGIPRYWYAGHYDYWGQGTQVTVSS	low polyreactivity
QVQLVESGGGLVQAGGSLRLSCAASGSSFYYYAMGWYRQAPGKERELVAAITSGDTTNYADSVKGRFTISRDNAKNTVYLQMNSLIPEDTAVYYCAVDLNTTAFYPEAATYLDEYWGQGTQVTVSS	low polyreactivity
QVQLVESGGGLVQAGGSLRLSCAASGSSLDSYTMGWSRQAPGKERELVAAITSDGGSTYYADSVKGRFTISRDNAKNTVYLQMNSLKPEDTAVDYCAKLSRYYGFWYTPDFDYWGQGTQVTVSS	high polyreactivity
QVQLVESGGGLVQAGGSLRLSCAASGSSVYSYAMGWYRQAPGKERELVAAISWRGGSTYYADSVKGRFTISRDNAKNTVYLQMNSLKPEDTAVYYCAAYYYTGPTTVESDYWGQGTQVTVSS	high polyreactivity
QVQLVESGGGLVQAGGSLRLSCAASGSTAENVMGWYRQAPGKERELVAAISSRGGSTYYADSVKGRFTISRDNAKNTVYLQMNSLKPEDTAVYYCAAEYVSHFSGDRYDYWGQGTQVTVSS	low polyreactivity
QVQLVESGGGLVQAGGSLRLSCAASGSTARYAMGWNRQAPGKERELVAAITGRTGRTNYADSVKGRFTISRDNAKITVYVQMNSLKPEDTAVYYCAKRAWRAVRWTYGYWGQGSQVTVSS	high polyreactivity
QVQLVESGGGLVQAGGSLRLSCAASGSTCASYAMGWYRQAPGKERELVAAITDSGGSTYYADSVKGRFTISRDNAKNTVYLQMNSLKPEDTAVYYCAAYGAYFSYHDYEYWGHGTQVTVSS	low polyreactivity
QVQLVESGGGLVQAGGSLRLSCAASGSTCDYYAMGWYRQAPGKEREIVAAITTGGDTTNYADSVKGRFTISRDNAKNTVYLQMNSLKPEVTAVYYCARDTGYDLIVLPDDSWGQGTQVTVSS	low polyreactivity
QVQLVESGGGLVQAGGSLRLSCAASGSTCILNAMGWYRQAPGKERELVATISSSDTSTYYADSVKGRFTISRDNAKNTVYLQMNCLKPEDTAVYYCNADYYTTSYLQGVYHYGVEYDFWGQGTQVTVSS	low polyreactivity
QVQLVESGGGLVQAGGSLRLSCAASGSTCPYYAMGWYRQAPRKEMELVASIRKRGGGTSYADSVKGRFTISRDNAKNTVYLQMNSLKPEDTALYYCAVRVYQLRYTGYDYWGQCTQVTVSS	high polyreactivity
QVQLVESGGGLVQAGGSLRLSCAASGSTCVYYPMGWYRQAPGKERELVAAIRGRDGNTYYADSVKGRFTISRDNAQNTVYLQMNSLKPEDSAVYSSAATRRNQLYGVAYRYDYWGQGTQVTVSS	high polyreactivity
QVQLVESGGGLVQAGGSLRLSCAASGSTFAANAMGWDRQAPGKERELVAAITSGGGSTYYADSVKGRFTISRDNAKNTVYLQMNSLKPEDTAVYYCAALQSHGVDYDYWGQGSQVTVSS	low polyreactivity
QVQLVESGGGLVQAGGSLRLSCAASGSTFAANAMGWYRPAPGKERELDAAITSSGGSTYYADSVKGRFTISRDNAKNTVYLQMISLKPEDTAVYYCNKDIERYVRIYDSWGQGTQVTVSS	low polyreactivity

Sequence	polyreactivity (PSR sort gate)
QVQLVESGGGLVQAGGSLRLSCAASGSTFAANAMGWYRQAPGKERELVAALTRSGGSTYYADSVKGRFTISRDNAKNTVYLQMNSLKPEDTAVYYCASKYHTRGVQHGYWGQGTQVTVSS	low polyreactivity
QVQLVESGGGLVQAGGSLRLSCAASGSTFAANTMGWYRQAPGKERELVAAITVRGGSTYYADSVKGRFTISRDNAKNTVYLQMNSLKPEDTAGYYGAAERPPYGYLVVGYVSTQYYYWGQGTQVTVSS	low polyreactivity
QVQLVESGGGLVQAGGSLRLSCAASGSTFAANTMGWYRQAPGKEWELVAAITVRGGSTYYADSVKGRFTISRDNAKTTVYLQMNSLKPEDTAVYYCAAERPPYGYLVVGYVSTQYYYWGQGTQVTVSS	low polyreactivity
QVQLVESGGGLVQAGGSLRLSCAASGSTFAAYAAMGWYRQAPGKERELVAAISWNGGSTFYADSVKGRFTISRDNAKNTVYLQMNSLKPEDTAVYYCAVEYYWTLDFTFTFPLSYYWGQGSQVTVSS	low polyreactivity
QVQLVESGGGLVQAGGSLRLSCAASGSTFAAYVMGWYRQAPGKEWELVAAITSGGSTYYADSVKGRFTISRDNAKNTVYLQMNSLKPEDTAVYYCAASWIRYRWRYGYWGQGTQVTVSS	high polyreactivity
QVQLVESGGGLVQAGGSLRLSCAASGSTFADYAMGWYRQAPGKERELVAAITGDGGNTYYADSVKGRFTISRDTAKNTVYLQMTSLKPEDTAVYYCAAEHESGAYYYWGLGTQVTVSS	high polyreactivity
QVQLVESGGGLVQAGGSLRLSCAASGSTFADYVMGWYRQAPGKERELVAAISRSGGSTYYADSVKGRFTISRDNAKNTVYLQMNSLKPEDTAVYYCATDITPAISVEYDYWGQGTQVTVSS	high polyreactivity
QVQLVESGGGLVQAGGSLRLSCAASGSTFAGNAIGWYRQAPGKERELVAAITSGTGTHYADSVKGRFTISRDNAKNSVYLQMNSLKPEDTAVYYCAAEVWSWAGIWGYEYWGQGTQVTVSS	low polyreactivity
QVQLVESGGGLVQAGGSLRLSCAASGSTFAGNAMGWYRHAPGKERELVAAIDSSTGSTYYADSVKGRFTISLDNAKNTVYLQMNSLKPEDTAVYYCNKTSFLVKLDFWGQGTQVTVSS	low polyreactivity
QVQLVESGGGLVQAGGSLRLSCAASGSTFAGNAMGWYRQAHGKERELVAALDSSTGSTYYAYSVKGRFTISRDNAKNTVYLQMNSVKPEDTAVYYWNKTSFLVKLDYWGQGTQVTVSS	low polyreactivity
QVQLVESGGGLVQAGGSLRLSCAASGSTFAGNTMGWSRQAPGKERELVAAITWNGGRTRYADSVKGRFTISRDNAKNTVYLQMNSLKPEDTAVYYCNAGPWYENMDYWGQGTQVTVSS	high polyreactivity
QVQLVESGGGLVQAGGSLRLSCAASGSTFAGYAMGWYRQAPGKERELVAAISKSGGSTYYADSVKGRFTISRDNAKNTVYLQMNSLKPEDTAVYYCAARGGLPDGQGYYYWGQGTQVTVSS	high polyreactivity
QVQLVESGGGLVQAGGSLRLSCAASGSTFAGYAMGWYRQAPGKERELVAAISRRGGSTYYADSVKGRFTISRDYAKNTVYLQMNRLKPEDTAVYYCNRDKYLRDPDYDYWGQGSQVTVSS	low polyreactivity
QVQLVESGGGLVQAGGSLRLSCAASGSTFAIYAMGWYRPAPGKERELVAAITLRTDSTYYADSVKGRFTISRDNAKNTVYLQMNSLKPEDTAVYYCNTVAYMRRFDKWGMNYWGQGTQVTVSS	low polyreactivity
QVQLVESGGGLVQAGGSLRLSCAASGSTFAIYAMGWYRQAPGKERELVAAISKSGGSTYYADSVKGRFTISRDNAKNTVYLQMNSLKPEDTAVYYCARRQYAFGPYGFYYWGQGTQVTVSS	high polyreactivity
QVQLVESGGGLVQAGGSLRLSCAASGSTFAIYAMGWYRQAPGKERELVASISGGSTNYADSVKGRFTISRDNAKNTVYLQMNSLKPEDTAVYYCAARGALHHWYSYDYWGQGTQVTVSS	low polyreactivity
QVQLVESGGGLVQAGGSLRLSCAASGSTFAKNAMGVYRQAPGKERELVAAISRGGNTYYADSVKGRFTISRDNAKITVYLLMNSLKPEDTAVYYCAARYLFRSLNMDYWGQVTQVTVSS	high polyreactivity
QVQLVESGGGLVQAGGSLRLSCAASGSTFAKYAMGWSRQAPGKEREFVAAITASGGRTFYADSVKGRFTISRDNAKNTVYLQMNSLKPEDSAVYYCAADVVPTWYGYNYDYWGQGTQVTVSS	high polyreactivity
QVQLVESGGGLVQAGGSLRLSCAASGSTFALNAMGWYRQAPGKERELVAAISGRGGSTYYADSVKGRFTISRDNAKNTVYLQMNSLKPEDTAVYYCAATSRVYVRGSYWKYGYWGQGTQVTVSS	high polyreactivity
QVQLVESGGGLVQAGGSLRLSCAASGSTFAPNAMGWYRQAPGKEKEIVSGITWGDSTYYADSVKGRFTISRDNAKNTVYLQMNSLKPEDTAVYYCAVRWVWNPWGIQGDWAVDYDYWGQGTQVTVSS	low polyreactivity
QVQLVESGGGLVQAGGSLRLSCAASGSTFAPNAMGWYRQAPGKERELVAAISRGGSTYYADSVKGRFTISRDNAKNTVYLQMNSLKPEDTAVYYCAVYKFHYGYVWYPYDYWGQGTQVTVSS	high polyreactivity
